Among the data in the RNAGym collection of RNA variant scans (doi:10.1093/nar/gkz1192) are self-cleavage values, retold here.

First the molecules themselves.
B1: CPEB3 Ribozyme (parent)
chain: UAACAGGGGGCCACAGCAGAAGCGUUCACGUCGCAGCCCCUGUCAGAUUCUGGUGAAUCUGCGAAUUCUGCUGUAUAUCUC

In this series the parent is B1. The series can be described thus: self-cleavage, relative activity (ratio to wild type); higher = more cleavage; in vitro, sequencing. In outline:
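Libraries of CPEB3 self-cleaving ribozyme mutants came from rounds of error-prone PCR and carried barcodes, which DNA sequencing matched to variants. In vitro transcription used T7 RNA polymerase at 37°C for 5 hours, with a further 15 min in DNase I before EDTA stopped the reaction; the ribozymes cleaved during both steps. The RNA was reverse transcribed with template switching and sequenced on Illumina. Relative activity is the cleaved/total read fraction of a variant divided by that of the unmutated ribozyme, averaged over three batches with at least 5 reads.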
UAACAGGGGGCCACAGCGGAAGCGUUCACGUCGGAGCCCCUGUCAGAUUCUGGUGAAUCUGCGAAUUCUGCUGUAUAUCUC [A18G C34G]: the self-cleavage is 0.08.

Take UAACAGGGGGCCACAGCAUAAGCGUUCACGUCGCAGCCCCUGUCAGAUUCUGGUGAAACUGCGAAUUCUGCUGUAUAUCUC [G19U U58A]: the self-cleavage turned out to be 0.04.

On to UAACAGGGGGCCACAGCAGAAGCGUUCACGUCGCAGCCCCUGUCAGAUUCUGGUGAAUCUGCGAAUACUGCUAUAUAUCUC [U67A G73A], for which the self-cleavage turned out to be 1.05.

On to UAACAGGGGGCCACAGCAGAAGCGUUCACGUCGCAGCCCCUGUCAGAUUCUGGUGGAUCUGCGAAUUCUGCUGUAUAACUC [A56G U78A], for which the self-cleavage came to 0.91.

As for UAACAGGGGGCCACAGCAGAAGCGUCCACGUCGCAGCCCCUGUCAGAUUCUGGUGAAUCUGCGCAUUCUGCUGUAUAUCUC [U26C A64C], the self-cleavage amounted to 0.31.

For the variant UAACAGGGGGCCACAGCAGAAGCGUUCACGUCGCAGCCCCUGUCAGAUUCUGGUGAAUCUCCGGAUUCUGCUGUAUAUCUC [G61C A64G], the self-cleavage was determined as 0.19.

Take UAACAGGGGGCCACAGCAGAAGCGUUCACGUCGCAGCCCCUGUCAGAUUCUGGUGAAUUUGCGUAUUCUGCUGUAUAUCUC [C59U A64U]: the self-cleavage amounted to 0.25.

Regarding UAACAGGGGGCCACUGCAGAAGCGUUCACGUCGCAUCCCCUGUCAGAUUCUGGUGAAUCUGCGAAUUCUGCUGUAUAUCUC [A15U G36U], the self-cleavage was found to be 0.08.

For the variant UAACAGGGGGCCACAGCAGAAGCGUUCACGUCGCAGCCCCUGUCAGAUUCUGGUGAAUCUGCGAAUUCUGCUGUAUAUGCC [C79G U80C], the self-cleavage is 0.27.

Turning to UAACAGGGGGCCUCAGCAGAAGCGUUCACGUCGCAGCCCCUGUCAGAUUCUGGUGAAUCUGCGAACUCUGCUGUAUAUCUC [A13U U66C], the self-cleavage stood at 0.48.

For UACCAGGGGGCCACAGCAGAAGCGUUCACGUCGCAGCCCCUGUCAGAUUCUGGUGAAACUGCGAAUUCUGCUGUAUAUCUC [A3C U58A], the self-cleavage came to 0.5.

For UAACAGGGGGCCACAGCAGGAGCGUUCACGUCGCAGCCACUGUCAGAUUCUGGUGAAUCUGCGAAUUCUGCUGUAUAUCUC [A20G C39A], the self-cleavage stood at 0.37.

For the variant UACCAGGGGGCCACAGCAGAGGCGUUCACGUCGCAGCCCCUGUCAGAUUCUGGUGAAUCUGCGAAUUCUGCUGUAUAUCUC [A3C A21G], the self-cleavage is 0.63.

Turning to UAACAGGGGGCCACAGCAGAAGCGUUCACGUCGCAGCCCCUGUCAGAUUCUGGUGGAUCUGCGAAUUCUGCUGUAUAUCUC [A56G], the self-cleavage was determined as 0.91.

In the case of UAACAGGGGGCCACAGCAGAAGCGUUCACGUCGCAGCCCCUGUCAGAUUCUGGUGGAUCUGCGAAUUCUGCUGUAUAUCUA [A56G C81A], the self-cleavage is 0.96.

On to UAACAGGGGGCCACAGCAGAAGCGUUCAAGUCGCAGCCCCUGUCAGAUUCUGGUAAAUCUGCGAAUUCUGCUGUAUAUCUC [C29A G55A], for which the self-cleavage was determined as 0.31.

With AAACAGGGGGCCACAGCAGAAGCGUUCACGUCGCAGCCCCUGUCAGAUUCUGGUGAAACUGCGAAUUCUGCUGUAUAUCUC [U1A U58A], the self-cleavage was determined as 0.29.

Consider UAACAGGGUGCCACAGCAGAAGCGUUCACGUCGCAGCCCCUGUCAGAUUCUUGUGAAUCUGCGAAUUCUGCUGUAUAUCUC [G9U G52U], for which the self-cleavage was determined as 0.18.

As for UAACAGGGGGCCAAAGCAGAUGCGUUCACGUCGCAGCCCCUGUCAGAUUCUGGUGAAUCUGCGAAUUCUGCUGUAUAUCUC [C14A A21U], the self-cleavage turned out to be 0.34.

UAACAGGGGGCCACAGCAGAAGCGCUCUCGUCGCAGCCCCUGUCAGAUUCUGGUGAAUCUGCGAAUUCUGCUGUAUAUCUC [U25C A28U]: the self-cleavage was found to be 0.25.

As to UAACAGGGGGCCACAGCAGAAGCGUUCACGUCGCAGCCCCUAUCAGAUUCUGGUGAAACUGCGAAUUCUGCUGUAUAUCUC [G42A U58A], the self-cleavage was found to be 0.21.

UAACAGGGGGCCACAGCAGAAGCGUUCACGUCGCAGCCCCUGUCAGUUUCUGGUGAAUCUGCGAAUUCUGCUGUAUAUCUA [A47U C81A]: the self-cleavage was found to be 1.13.

UAACAGGGGGCCACAGCAGAAGCGUCCACGUCGCAGCCCCUGUCAGAUUCUGGUGAAUCUGCGAAUUCUGCCGUAUAUCUC [U26C U72C]: the self-cleavage stood at 0.65.

Regarding UAACAGGGGGCCACAGCAGCAGCGUUCACGUCGCAGCCCCUGUUAGAUUCUGGUGAAUCUGCGAAUUCUGCUGUAUAUCUC [A20C C44U], the self-cleavage was determined as 0.22.

Regarding UAACAGGGGGCCACAGCAGAAGCGUUCCCGUCGCAGCCCCUGUCAGAUUCUGGUGAACCUGCGAAUUCUGCUGUAUAUCUC [A28C U58C], the self-cleavage came to 0.27.

Turning to UAACAGGGGGCCACAGCAGAAGCGUUCACGUCGCGGCCCCUGUCAGAUUCUGGUGAAUCUGCGAAUUCAGCUGUAUAUCUC [A35G U69A], the self-cleavage is 1.22.

UAACAGGGGGCCACAGCAGAAGCGUUCACGUCGCAGCCCCUGUCAGAUUCUGGUGAAUCAGCGAAUUCUGCUGUAUGUCUC [U60A A77G]: the self-cleavage amounted to 0.56.

As for UAACAGGGGGCCACAGCAGUAGCGUUCACGUCGCAGCCCCUGACAGAUUCUGGUGAAUCUGCGAAUUCUGCUGUAUAUCUC [A20U U43A], the self-cleavage came out at 0.45.

As for UAACAGGGGGCCACAGCAGAAGCGUUCACGUCGCAGCCCCUGUCAGAUUCUGGUGAAUCUGCUAAUUCUGCUGUAUAUUUC [G63U C79U], the self-cleavage came to 1.09.

In the case of UAACAGGGGGCCACAGCAGAAGCGUUCACGUCGCAGCCCCUGUCAGAUUCUGGUGAAUCUGCGAACUCUUCUGUAUAUCUC [U66C G70U], the self-cleavage is 0.22.

Take UAACAGGGGGCCACAGCAGAAGCGUUCACGUCGCAGCCCCAGUCAGAUUCUAGUGAAUCUGCGAAUUCUGCUGUAUAUCUC [U41A G52A]: the self-cleavage is 0.19.

UAACAGGGGGCCACAGCAGAAGCGUUCAAGUCGCAGCCCCUGUCAGAUUCUGGUGAACCUGCGAAUUCUGCUGUAUAUCUC [C29A U58C]: the self-cleavage is 0.29.

As for UAACAGGGGGCCACAGCAGAAGCGUUCACGUCGCAGGCCCUGUCAGAUUCUGGUGAAUCUGCGAAUUCAGCUGUAUAUCUC [C37G U69A], the self-cleavage amounted to 0.19.

In the case of UAACAGGGGGCCACAGCACAAACGUUCACGUCGCAGCCCCUGUCAGAUUCUGGUGAAUCUGCGAAUUCUGCUGUAUAUCUC [G19C G22A], the self-cleavage turned out to be 0.22.
